# US20190375812A1
# Target: IL2Rαβγ, the high affinity IL-2 receptor, on human Treg cells (human) (UniProt P01589)
# Experiment: cell-based or functional assay
# IL2Rαβγ, the high affinity IL-2 receptor, on human Treg cells (human), sequence (P01589 22-272, chain 1 of 3): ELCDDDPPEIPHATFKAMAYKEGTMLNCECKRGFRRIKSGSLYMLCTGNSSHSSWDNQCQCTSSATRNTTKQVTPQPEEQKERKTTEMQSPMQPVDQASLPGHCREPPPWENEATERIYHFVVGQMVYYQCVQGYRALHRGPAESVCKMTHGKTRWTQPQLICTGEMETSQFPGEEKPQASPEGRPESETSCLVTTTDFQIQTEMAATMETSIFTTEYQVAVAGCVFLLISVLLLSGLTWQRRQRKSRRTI
# IL2Rαβγ, the high affinity IL-2 receptor, on human Treg cells (human), sequence (P14784 27-551, chain 2 of 3, further chain): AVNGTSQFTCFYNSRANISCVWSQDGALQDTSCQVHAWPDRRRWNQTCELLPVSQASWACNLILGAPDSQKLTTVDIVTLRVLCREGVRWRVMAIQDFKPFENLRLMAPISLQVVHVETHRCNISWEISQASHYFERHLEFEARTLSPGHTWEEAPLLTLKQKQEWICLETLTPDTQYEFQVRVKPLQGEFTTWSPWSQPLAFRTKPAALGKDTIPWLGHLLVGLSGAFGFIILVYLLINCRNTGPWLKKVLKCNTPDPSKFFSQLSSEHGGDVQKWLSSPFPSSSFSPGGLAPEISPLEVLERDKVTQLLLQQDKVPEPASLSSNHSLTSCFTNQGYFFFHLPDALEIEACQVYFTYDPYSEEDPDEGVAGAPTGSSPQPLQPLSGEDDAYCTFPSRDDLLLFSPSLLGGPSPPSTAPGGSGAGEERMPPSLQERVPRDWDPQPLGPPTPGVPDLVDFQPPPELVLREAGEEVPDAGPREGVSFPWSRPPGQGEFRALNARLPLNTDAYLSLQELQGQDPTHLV
# IL2Rαβγ, the high affinity IL-2 receptor, on human Treg cells (human), sequence (P31785 23-369, chain 3 of 3, further chain): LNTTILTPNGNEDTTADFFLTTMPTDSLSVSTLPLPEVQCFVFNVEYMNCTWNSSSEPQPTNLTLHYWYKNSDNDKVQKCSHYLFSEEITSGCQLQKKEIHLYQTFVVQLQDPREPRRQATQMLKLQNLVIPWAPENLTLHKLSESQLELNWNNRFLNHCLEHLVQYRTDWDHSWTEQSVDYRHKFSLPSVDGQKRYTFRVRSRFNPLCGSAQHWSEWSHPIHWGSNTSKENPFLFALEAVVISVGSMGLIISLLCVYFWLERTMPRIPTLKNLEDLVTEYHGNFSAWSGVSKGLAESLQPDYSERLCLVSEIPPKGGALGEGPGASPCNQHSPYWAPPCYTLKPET
substance,measurement,value
N88R/IL2 (from UniProt P60568 21-153) (ligand),"Percentage of pSTAT5+ cells, Treg cells in human PBMC, 10^-8 M protein",99.9%
